From patent US20220332795A1 (ARO BIOTHERAPEUTICS, published 2022) come the findings set out here.

The target in assay [1] is T1, recombinant biotinylated CD71 extracellular domain (Sino Biologics) with an N-terminal 6His tag (human, UniProt P02786 89-760, biotinylated (site not stated)).
T1 construct: extracellular domain; also called hCD71; huCD71 ECD
Nature of the assay: primary solution ELISA screen, signal on hCD71 over HSA. In general terms: In an ELISA, binding on a coated surface is turned into a signal by an enzyme label.

Assay [2] addresses T1, recombinant biotinylated CD71 …. Nature of the assay: primary solution ELISA screen.

T1 sequence (P02786 other isoform, or with tags, fused parts or gaps): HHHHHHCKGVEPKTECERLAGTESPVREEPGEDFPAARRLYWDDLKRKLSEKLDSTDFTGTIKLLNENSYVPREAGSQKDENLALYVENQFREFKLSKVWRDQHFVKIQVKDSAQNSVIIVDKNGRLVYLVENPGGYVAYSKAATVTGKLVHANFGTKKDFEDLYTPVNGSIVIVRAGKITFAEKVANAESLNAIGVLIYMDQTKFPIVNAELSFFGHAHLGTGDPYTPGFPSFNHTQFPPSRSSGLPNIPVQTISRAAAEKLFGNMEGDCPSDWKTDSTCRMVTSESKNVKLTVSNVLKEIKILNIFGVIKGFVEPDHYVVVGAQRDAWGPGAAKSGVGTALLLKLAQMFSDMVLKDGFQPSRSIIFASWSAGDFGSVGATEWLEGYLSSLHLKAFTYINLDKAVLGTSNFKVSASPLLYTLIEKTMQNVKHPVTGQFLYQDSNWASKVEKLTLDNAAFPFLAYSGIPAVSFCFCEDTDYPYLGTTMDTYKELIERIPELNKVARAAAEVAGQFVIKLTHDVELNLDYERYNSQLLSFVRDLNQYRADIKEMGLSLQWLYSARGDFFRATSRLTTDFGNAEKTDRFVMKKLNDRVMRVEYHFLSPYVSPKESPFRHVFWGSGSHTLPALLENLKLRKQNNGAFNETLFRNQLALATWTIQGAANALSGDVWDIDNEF

B1: SEQ ID NO 66 (designed binder, not shown: small tags and cut ends)
chain: MLPAPKNLVVSRVTEDSARLSWTAPDAAFDSFTIDYDEPRSPGEAIVLTVPGSERSYDLTGLKPGTEYRVFIWGIKGGDTSFPLSAIFTT
notes: FN3 domain, hit of the apical domain panning
Regarding B1, the “hCD71:HSA” value in assay [1] came to 29. Also, the RLU in assay [2] is 232000 RLU.

B2: SEQ ID NO 48 (designed binder, not shown: small tags and cut ends)
chain: MLPAPKNLVVSRVTEDSARLSWTAPDAAFDSFLIYYEEGYLEYYYSGEAIVLTVPGSERSYDLTGLKPGTEYYVGIVGVKGGGLSGPLSAISTT
notes: as for B1
On to B2, for which the “hCD71:HSA” value in assay [1] is 26. Moreover, the RLU in assay [2] is 3.04e+06 RLU.

B3: SEQ ID NO 3 (designed binder, not shown: small tags and cut ends)
chain: MLPAPKNLVVSRVTEDSARLSWTAPDAAFDSFNIEYAETRWYGEAIVLTVPGSERSYDLTGLKPGTEYVVPIDGVKGGIASKPLSAIFTT
notes: as for B1
Regarding B3, the “hCD71:HSA” value in assay [1] stood at 69. The RLU in assay [2] worked out at 687000 RLU.

B4: SEQ ID NO 78 (designed binder, not shown: small tags and cut ends)
chain: MLPAPKNLVVSRVTEDSARLSWTAPDAAFDSFGIGYYEHKRFGEAIQLSVPGSERSYDLTGLKPGTEYEVDIEGVKGGVLSWPLFAEFTT
notes: as for B1
Turning to B4, in assay [1], the “hCD71:HSA” value was 29. Moreover, the RLU in assay [2] amounted to 271000 RLU.

B5: SEQ ID NO 58 (designed binder, not shown: small tags and cut ends)
chain: MLPAPKNLVVSRVTEDSARLSWTAPDAAFDSFHIEYLELSRHGEAIVLTVPGSERSYDLTGLKPGTEYWVMIFGVKGGGPSKPLSAIFTT
notes: as for B1
Turning to B5, in assay [1], the “hCD71:HSA” value was found to be 101. For the same molecule, the RLU in assay [2] was determined as 1.04e+06 RLU.

B6: SEQ ID NO 71 (designed binder, not shown: small tags and cut ends)
chain: MLPAPKNLVVSRVTEDSARLSWTAPDAAFDSFPISYLELSLYGEAIVLTVPGSERSYDLTGLKPGTEYPVGIAGVKGGVVSRPLSAIFTT
notes: as for B1
As to B6, in assay [1], the “hCD71:HSA” value turned out to be 96. Also, in assay [2], the RLU is 2.64e+06 RLU.

B7: SEQ ID NO 101 (designed binder, not shown: small tags and cut ends)
chain: MLPAPKNLVVSRVTEDSARLSWTAPDAAFDSFHILYEELFLVGEAIVLTVPGSERSYDLTGLKPGTEYKVPISGVKGGPVSRPLSAIFTT
notes: as for B1
B7: the “hCD71:HSA” value in assay [1] is 73. For the same molecule, in assay [2], the RLU came to 336000 RLU.

B8: SEQ ID NO 69 (designed binder, not shown: small tags and cut ends)
chain: MLPAPKNLVVSRVTEDSARLSWTAPDAAFDSFHIAYEETATSGEAIYLRVPGSERSYDLTGLKPGTEYGVEIEGVKGGARSRPLYADFTT
notes: as for B1
On to B8, for which, in assay [1], the “hCD71:HSA” value is 1170. Also, the RLU in assay [2] was 3.17e+06 RLU.

B9: SEQ ID NO 67 (designed binder, not shown: small tags and cut ends)
chain: MLPAPKNLVVSRVTEDSARLSWTAPDAAFDSFTILYAEQAQFGEAIVLTVPGSERSYDLTGLKPGTEYPITGVKGGTRSGPLSAISTT
notes: as for B1
As to B9, the “hCD71:HSA” value in assay [1] came to 131. For the same molecule, the RLU in assay [2] turned out to be 1.85e+06 RLU.

B10: SEQ ID NO 50 (designed binder, not shown: small tags and cut ends)
chain: MSLPAPKNLVVSRVTEDSARLSWTAPDAAFDSFTIHYREFQLSGEAIVLTVPGSERSYDLTGLKPGTEYDVPIEGVKGGPGSRPLSAIFTT
notes: as for B1
B10: the “hCD71:HSA” value in assay [1] came to 20. For the same molecule, the RLU in assay [2] came out at 321000 RLU.

B11: SEQ ID NO 6 (designed binder, not shown: small tags and cut ends)
chain: MLPAPKNLVVSRVTEDSARLSWTAPDAAFDSFPIIYMETFSRGEAIVLTVPGSERSYDLTGLKPGTEYRVPIGGVKGGSSSCPLSAIFTT
notes: as for B1
For B11, in assay [1], the “hCD71:HSA” value worked out at 43. Also, the RLU in assay [2] stood at 315000 RLU.

B12: SEQ ID NO 62 (designed binder, not shown: small tags and cut ends)
chain: MLPAPKNLVVSRVTEDSARLSWTAPDAAFDSFKIRYTETRSIGEAIVLTVPGSERSYDLTGLKPGTEYCVPIGGVKGGDSSWPLSAISTT
notes: as for B1
Turning to B12, in assay [1], the “hCD71:HSA” value was 28. Moreover, in assay [2], the RLU was determined as 229000 RLU.

B13: SEQ ID NO 61 (designed binder, not shown: small tags and cut ends)
chain: MLPAPKNLVVSRVTEDSARLSWTAPDAAFDSFQIVYSELWIKGEAIVLTVPGSERSYDLTGLKPGTEYQVPIPGVKGGRNSFPLSAIFTT
notes: as for B1
On to B13, for which the “hCD71:HSA” value in assay [1] was found to be 19. The RLU in assay [2] was found to be 252000 RLU.

B14: SEQ ID NO 13 (designed binder, not shown: small tags and cut ends)
chain: MLPAPKNLVVSRVTEDSARLSWTAPDAAFDSFLIAYPEDGFRGEAIVLTVPGSERSYDLTGLKPGTEYPVPILGVKGGGGSGPLSAIFTT
notes: as for B1
As to B14, the “hCD71:HSA” value in assay [1] is 70. In addition, the RLU in assay [2] was 1.73e+06 RLU.

B15: SEQ ID NO 10 (designed binder, not shown: small tags and cut ends)
chain: MLPAPKNLVVSRVTEDSARLSWTAPDAAFDSFKIAYIETATRGEAIVLTVPGSERSYDLTGLKPGTEYVVPIPGVKGGNTSSPLSAIFTT
notes: as for B1
Turning to B15, the “hCD71:HSA” value in assay [1] amounted to 27. The RLU in assay [2] was 788000 RLU.

B16: SEQ ID NO 72 (designed binder, not shown: small tags and cut ends)
chain: MLPAPKNLVVSRVTEDSARLSWTAPDAAFDSFTIGYREWYWYGEAIVLTVPGSERSYDLTGLKPGTEYNVPISGVKGGLDSFPLSAIFTT
notes: as for B1
On to B16, for which, in assay [1], the “hCD71:HSA” value is 38. Moreover, the RLU in assay [2] worked out at 338000 RLU.

B17: SEQ ID NO 17 (designed binder, not shown: small tags and cut ends)
chain: MLPAPKNLVVSRVTEDSARLSWTAPDAAFDSFPILYTECVYRGEAIVLTVPGSERSYDLTGLKPGTEYHVPITGVKGGGGSWPLSAIFTT
notes: as for B1
In the case of B17, the “hCD71:HSA” value in assay [1] was determined as 61. Moreover, the RLU in assay [2] came out at 221000 RLU.

B18: SEQ ID NO 30 (designed binder, not shown: small tags and cut ends)
chain: MLPAPKNLVVSRVTEDSARLSWTAPDAAFDSFIIHYVEQQLIGEAIVLTVPGSERSYDLTGLKPGTEYPVPITGVKGGACSWPLSAIFTT
notes: as for B1
Turning to B18, the “hCD71:HSA” value in assay [1] worked out at 46. In addition, in assay [2], the RLU was 205000 RLU.

B19: SEQ ID NO 33 (designed binder, not shown: small tags and cut ends)
chain: MLPAPKNLVVSRVTEDSARLSWTAPDAAFDSFGIAYVESYWYGEAIVLTVPGSERSYDLTGLKPGTEYNVPIYGVKGGDGSGPLSAIFTT
notes: as for B1
Take B19: the “hCD71:HSA” value in assay [1] came to 132. The RLU in assay [2] worked out at 271000 RLU.

B20: SEQ ID NO 43 (designed binder, not shown: small tags and cut ends)
chain: MLPAPKNLVVSRVTEDSARLSWTAPDAAFDSFMIVYYEYTRFGEAIVLTVPGSERSYDLTGLKPGTEYTVPIDGVKGGGRSSPLSAIFTT
notes: as for B1
Take B20: in assay [1], the “hCD71:HSA” value is 36. Also, the RLU in assay [2] was 772000 RLU.

B21: SEQ ID NO 34 (designed binder, not shown: small tags and cut ends)
chain: MLPAPKNLVVSRVTEDSARLSWTAPDAAFDSFYITYVELNLAGEAIVLTVPGSERSYDLTGLKPGTEYPVPILGVKGGSLSQPLSAIFTT
notes: as for B1
With B21, in assay [1], the “hCD71:HSA” value was determined as 195. Further, the RLU in assay [2] came out at 1.58e+06 RLU.

B22: SEQ ID NO 18 (designed binder, not shown: small tags and cut ends)
chain: MLPAPKNLVVSRVTEDSARLSWTAPDAAFDSFNIMYHEIIYVGEAIVLTVPGSERSYDLTGLKPGTEYPVPIEGVKGGGTSGPLSAIFTT
notes: as for B1
B22: in assay [1], the “hCD71:HSA” value was 79. The RLU in assay [2] worked out at 828000 RLU.

B23: SEQ ID NO 56 (designed binder, not shown: small tags and cut ends)
chain: MLPAPKNLVVSRVTEDSARLSWTAPDAAFDSFSIGYVELVLLGEAIVLTVPGSERSYDLTGLKPGTEYDVLIPGVKGGSLSRPLSAIFTT
notes: as for B1
Regarding B23, the “hCD71:HSA” value in assay [1] was 99. In addition, in assay [2], the RLU is 1.92e+06 RLU.

B24: SEQ ID NO 88 (designed binder, not shown: small tags and cut ends)
chain: MLPAPKNLVVSRVTEDSARLSWTAPDAAFDSFPIKYREVLRCGEAIVLTVPGSERSYDLTGLKPGTEYTVPITGVKGGFGSSPLSAIFTT
notes: as for B1
Take B24: in assay [1], the “hCD71:HSA” value was 21. Further, in assay [2], the RLU worked out at 515000 RLU.

B25: SEQ ID NO 74 (designed binder, not shown: small tags and cut ends)
chain: MLPAPKNLVVSRVTEDSARLSWTAPDAAFDSFSITYLEWWNLGEAIVLTVPGSERSYDLTGLKPGTEYMVTIPGVKGGMSSYPLSAIFTT
notes: as for B1
As to B25, the “hCD71:HSA” value in assay [1] is 56. The RLU in assay [2] is 824000 RLU.

B26: SEQ ID NO 75 (designed binder, not shown: small tags and cut ends)
chain: MLPAPKNLVVSRVTEDSARLSWTAPDAAFDSFTISYGEEALIGEAIYLRVPGSERSYDLTGLKPGTEYYVHIEGVKGGSWSQPLAAAFTT
notes: as for B1
For the molecule B26, the “hCD71:HSA” value in assay [1] was found to be 143. The RLU in assay [2] worked out at 530000 RLU.

B27: SEQ ID NO 76 (designed binder, not shown: small tags and cut ends)
chain: MLPAPKNLVVSRVTEDSARLSWTAPDAAFDSFTIEYYENIGIGEAIVLTVPGSERSYDLTGLKPGTEYSVPIVGVKGGPYSHPLSAIFTT
notes: as for B1
Regarding B27, in assay [1], the “hCD71:HSA” value was determined as 41. Besides, the RLU in assay [2] was found to be 674000 RLU.

B28: SEQ ID NO 85 (designed binder, not shown: small tags and cut ends)
chain: MLPAPKNLVVSRVTEDSARLSWTAPDAAFDSFIIEYFEPIPIGEAIVLTVPGSERSYDLTGLKPGTEYAVNIYGVKGGYLSHPLSAIFTT
notes: as for B1
Consider B28, for which the “hCD71:HSA” value in assay [1] was 33. The RLU in assay [2] amounted to 210000 RLU.

B29: SEQ ID NO 29 (designed binder, not shown: small tags and cut ends)
chain: MLPAPKNLVVSRVTEDSARLSWTAPDAAFDSFWIEYWEAVGFGEAIVLTVPGSERSYDLTGLKPGTEYFVGIYGVKGGYLSAPLSAIFTT
notes: as for B1
As to B29, the “hCD71:HSA” value in assay [1] came to 580. Moreover, the RLU in assay [2] came out at 2.17e+06 RLU.

B30: SEQ ID NO 54 (designed binder, not shown: small tags and cut ends)
chain: MLPAPKNLVVSRVTEDSARLSWTAPDAAFDSFAIAYGEHIVIGEAIVLTVPGSERSYDLTGLKPGTEYMVPIAGVKGGPISLPLSAIFTT
notes: as for B1
For B30, the “hCD71:HSA” value in assay [1] was 49. Besides, the RLU in assay [2] was determined as 579000 RLU.

B31: SEQ ID NO 63 (designed binder, not shown: small tags and cut ends)
chain: MLPAPKNLVVSRVTEDSARLSWTAPDAAFDSFCISYYERMGRGEAIVLTVPGSERSYDLTGLKPGTEYMVYIFGVKGGLNSLPLSAIFTT
notes: as for B1
B31: the “hCD71:HSA” value in assay [1] was 826. In addition, the RLU in assay [2] amounted to 4.71e+06 RLU.

B32: SEQ ID NO 47 (designed binder, not shown: small tags and cut ends)
chain: MLPAPKNLVVSRVTEDSARLSWTAPDAAFDSFGIVYLEMMVTGEAIVLTVPGSERSYDLTGLKPGTEYDVPILGVKGGTRSVPLSAIFTT
notes: as for B1
B32: the “hCD71:HSA” value in assay [1] worked out at 98. The RLU in assay [2] was determined as 1.99e+06 RLU.

B33: SEQ ID NO 59 (designed binder, not shown: small tags and cut ends)
chain: MLPAPKNLVVSRVTEDSARLSWTAPDAAFDSFVYNEVHWIGEAIVLTVPGSERSYDLTGLKPGTEYFVGIYGVKGGHWSKPLSAIFTT
notes: as for B1
For B33, in assay [1], the “hCD71:HSA” value worked out at 68. Besides, the RLU in assay [2] was 1.11e+06 RLU.
